How the values were obtained:
[1] = molecular target: CXCR4 mutant E288D (human) (UniProt P61073); assay: 12G5 antibody competition binding on cells
[2] = molecular target: CXCR4 mutant Y255A (human) (UniProt P61073); assay: 12G5 antibody competition binding on cells
[3] = molecular target: chemokine receptor CXCR4, wild type (human) (UniProt P61073); assay: 12G5 antibody competition binding on cells
[4] = molecular target: CXCR4 mutant DNX4 (human) (UniProt P61073); assay: 12G5 antibody competition binding on cells
[5] = molecular target: CXCR4 mutant Y45A (human) (UniProt P61073); assay: 12G5 antibody competition binding on cells
[6] = molecular target: CXCR4 mutant F292A (human) (UniProt P61073); assay: 12G5 antibody competition binding on cells
[7] = molecular target: CXCR4 mutant W252A (human) (UniProt P61073); assay: 12G5 antibody competition binding on cells
[8] = molecular target: CXCR4 mutant Y121A (human) (UniProt P61073); assay: 12G5 antibody competition binding on cells
[9] = molecular target: CXCR4 mutant F87A (human) (UniProt P61073); assay: 12G5 antibody competition binding on cells
[10] = molecular target: CXCR4 mutant D171A (human) (UniProt P61073); assay: 12G5 antibody competition binding on cells
CXCR4 = CXCR4 (Homo sapiens, UniProt P61073); assay: Intracellular calcium mobilization in Sup T1 cells; type: cell-based; conditions: 50 nM, Sup T1 cells expressing CXCR4, fura-2; representative of at least three independent experiments

Substance | decrease of binding against wild-type CXCR4 [1] | decrease of binding against wild-type CXCR4 [2] | IC50 [3] | increase of % bound 12G5 against wild-type CXCR4 [4] | decrease of binding against wild-type CXCR4 [5] | decrease of binding against wild-type CXCR4 [6] | decrease of binding against wild-type CXCR4 [7] | decrease of binding against wild-type CXCR4 [8] | decrease of binding against wild-type CXCR4 [9] | decrease of binding against wild-type CXCR4 [10] | Mobilization of calcium (Ca2+) (CXCR4)
DV1 dimer (peptide) | 40% | 20% | 3 nM | 15% | 20% | 20% | 20% | 20% | 40% | 60% | –
stromal cell-derived factor-1α [SDF-1α] | – | – | – | – | – | – | – | – | – | – | rapid Ca^2+ mobilization

— paper PMC3476724 (Biochemistry, 2012)
